Measured values: patent US20240200091A1, “USE OF PROTOPORPHYRINOGEN OXIDASE” (BEIJING DABEINONG BIOTECHNOLOGY CO., LTD., priority 2021, published 2024)

Tests used:
Assay type in all cases: in vivo
[1] = test system: transgenic soybean plants; experiment: saflufenacil tolerance of transgenic soybean plants (spray, grade of pesticide damage); details: for The grade of pesticide damage/plant: grade 0 / The grade of pesticide damage/plant: grade 1 / The grade of pesticide damage/plant: grade 2 / The grade of pesticide damage/plant: grade 3: 7 DAT, number of plants of 16 per genotype, grades
[2] = test system: transgenic soybean plants; experiment: oxyfluorfen tolerance of transgenic soybean plants (spray, grade of pesticide damage); details: for The grade of pesticide damage/plant: grade 0 / The grade of pesticide damage/plant: grade 1 / The grade of pesticide damage/plant: grade 2 / The grade of pesticide damage/plant: grade 3: 7 DAT, number of plants of 16 per genotype, grades; for tolerance to oxyfluorfen: soybean
[3] = test system: transgenic soybean plants; experiment: flumioxazin tolerance of transgenic soybean plants (spray, grade of pesticide damage); details: for The grade of pesticide damage/plant: grade 0 / The grade of pesticide damage/plant: grade 1 / The grade of pesticide damage/plant: grade 2 / The grade of pesticide damage/plant: grade 3: 7 DAT, number of plants of 16 per genotype, grades

B1: PPO-ECA: nucleotide sequence encoding Escherichia coli protoporphyrinogen oxidase PPO-EC (SEQ ID NO:43), Arabidopsis thaliana/soybean common codon usage bias (nucleic acid)
DNA: ATGAAAACACTTATCTTGTTCTCAACTAGAGATGGACAGACAAGAGAGATTGCTTCTTACTTGGCTTCAGAACTTAAGGAGTTGGGTATTCAAGCTGATGTTGCTAATGTTCATAGAATTGAAGAGCCTCAGTGGGAAAACTATGATAGAGTTGTTATTGGAGCTTCTATTAGATATGGTCATTACCATTCAGCTTTTCAAGAGTTCGTTAAGAAACATGCTACTAGACTTAACTCTATGCCATCAGCTTTTTACTCTGTTAACTTGGTTGCTAGAAAGCCTGAGAAAAGAACTCCACAAACAAACTCTTACGCTAGAAAGTTCCTTATGAACTCACAGTGGAGACCTGATAGATGCGCTGTTATTGCTGGTGCTCTTAGATATCCAAGATACAGATGGTACGATAGATTCATGATCAAGTTGATTATGAAAATGTCTGGAGGTGAAACTGATACAAGAAAGGAGGTTGTTTACACAGATTGGGAACAGGTTGCTAATTTCGCTAGAGAGATTGCTCATCTTACTGATAAGCCAACATTGAAATGA
modifications: The nucleotide sequence of PPO-ECA
The grade of pesticide damage/plant: grade 0 ([1]; saflufenacil 50 g ai/ha (2×)): 9 plant | The grade of pesticide damage/plant: grade 1 ([1]; saflufenacil 50 g ai/ha (2×)): 7 plant | The grade of pesticide damage/plant: grade 2 ([1]; saflufenacil 50 g ai/ha (2×)): 0 plant | The grade of pesticide damage/plant: grade 3 ([1]; saflufenacil 50 g ai/ha (2×)): 0 plant | The grade of pesticide damage/plant: grade 0 ([1]; saflufenacil 100 g ai/ha (4×)): 8 plant | The grade of pesticide damage/plant: grade 1 ([1]; saflufenacil 100 g ai/ha (4×)): 3 plant | The grade of pesticide damage/plant: grade 2 ([1]; saflufenacil 100 g ai/ha (4×)): 5 plant | The grade of pesticide damage/plant: grade 3 ([1]; saflufenacil 100 g ai/ha (4×)): 0 plant | tolerance to saflufenacil ([1]; soybean, saflufenacil, compared with the control vector and CK): different extents of tolerance | The grade of pesticide damage/plant: grade 0 ([2]; oxyfluorfen 360 g ai/ha (2×)): 16 plant | The grade of pesticide damage/plant: grade 1 ([2]; oxyfluorfen 360 g ai/ha (2×)): 0 plant | The grade of pesticide damage/plant: grade 2 ([2]; oxyfluorfen 360 g ai/ha (2×)): 0 plant | The grade of pesticide damage/plant: grade 3 ([2]; oxyfluorfen 360 g ai/ha (2×)): 0 plant | The grade of pesticide damage/plant: grade 0 ([2]; oxyfluorfen 720 g ai/ha (4×)): 13 plant | The grade of pesticide damage/plant: grade 1 ([2]; oxyfluorfen 720 g ai/ha (4×)): 3 plant | The grade of pesticide damage/plant: grade 2 ([2]; oxyfluorfen 720 g ai/ha (4×)): 0 plant | The grade of pesticide damage/plant: grade 3 ([2]; oxyfluorfen 720 g ai/ha (4×)): 0 plant | tolerance to oxyfluorfen ([2]; oxyfluorfen at four-fold field concentration (720 g ai/ha)): high-resistant tolerance | tolerance to oxyfluorfen ([2]; oxyfluorfen at two-fold field concentration (360 g ai/ha)): high-resistant tolerance | The grade of pesticide damage/plant: grade 0 ([3]; flumioxazin 120 g ai/ha (2×)): 16 plant | The grade of pesticide damage/plant: grade 1 ([3]; flumioxazin 120 g ai/ha (2×)): 0 plant | The grade of pesticide damage/plant: grade 2 ([3]; flumioxazin 120 g ai/ha (2×)): 0 plant | The grade of pesticide damage/plant: grade 3 ([3]; flumioxazin 120 g ai/ha (2×)): 0 plant | The grade of pesticide damage/plant: grade 0 ([3]; flumioxazin 240 g ai/ha (4×)): 15 plant | The grade of pesticide damage/plant: grade 1 ([3]; flumioxazin 240 g ai/ha (4×)): 1 plant | The grade of pesticide damage/plant: grade 2 ([3]; flumioxazin 240 g ai/ha (4×)): 0 plant | The grade of pesticide damage/plant: grade 3 ([3]; flumioxazin 240 g ai/ha (4×)): 0 plant | tolerance to flumioxazin ([3]; soybean, flumioxazin at different concentrations (120 and 240 g ai/ha)): high-resistant tolerance
